How the values were obtained:
[1] = target: T1, F-actin (rabbit skeletal muscle actin filaments) (rabbit, UniProt P68135 1-377, methylated His73 (His73me)); assay: fluorescence polarisation
[2] = target: T1, F-actin (rabbit skeletal muscle actin …); assay: other fluorescence titration
[3] = target: T1, F-actin (rabbit skeletal muscle actin …); assay: fluorescence polarisation; remark: listed apart in the source
[4] = target: T1, F-actin (rabbit skeletal muscle actin …); assay: cryo-EM structure
[5] = target: Alexa-488 labeled F-actin (rabbit skeletal muscle actin) (rabbit, UniProt P68135 1-377); assay: single-molecule TIRF microscopy
[6] = target: T1, F-actin (rabbit skeletal muscle actin …); assay: fluorescence polarisation; remark: listed apart in the source

B1: FM-SipAC-ΔArm2 (SipA residues 425–658 labeled with fluorescein maleimide) (domain or fragment)
chain: TGETTSFDEVDGVTSKSIIGKPVQATVHGVDDNKQQSQTAEIVNVKPLASQLAGVENVKTDTLQSDTTVITGNKAGTTDNDNSQTDKTGPFSGLKFKQNSFLSTVPSVTNMHSMHFDARETFLGVIRKALEPDTSTPFPVRRAFDGLRAEILPNDTIKSAALKAQCSDIDKHPELKAKMETLKEVITHHPQKEKLAEIALQFAREAGLTRLKGETDYVLSNVLDGLIGDGSWRA
modifications: fluorescein maleimide (FM) label
B1 was tested, and the Kd [1] was 120 nM.

B2: SipAC (SipA residues 425–685), unlabeled (domain or fragment)
chain: TGETTSFDEVDGVTSKSIIGKPVQATVHGVDDNKQQSQTAEIVNVKPLASQLAGVENVKTDTLQSDTTVITGNKAGTTDNDNSQTDKTGPFSGLKFKQNSFLSTVPSVTNMHSMHFDARETFLGVIRKALEPDTSTPFPVRRAFDGLRAEILPNDTIKSAALKAQCSDIDKHPELKAKMETLKEVITHHPQKEKLAEIALQFAREAGLTRLKGETDYVLSNVLDGLIGDGSWRAGPAYESYLNKPGVDRVITTVDGLHMQR
In the case of B2, the Kd [2] is reported as 0.18 nM, the Kd [3] is reported as 5 nM and the “stoichiometry N” value [4] is reported as 0.5 SipAC per actin subunit.

B3: Alexa-647-SipAC (SipA residues 425–685 labeled with Alexa-647) (domain or fragment)
chain: TGETTSFDEVDGVTSKSIIGKPVQATVHGVDDNKQQSQTAEIVNVKPLASQLAGVENVKTDTLQSDTTVITGNKAGTTDNDNSQTDKTGPFSGLKFKQNSFLSTVPSVTNMHSMHFDARETFLGVIRKALEPDTSTPFPVRRAFDGLRAEILPNDTIKSAALKAQCSDIDKHPELKAKMETLKEVITHHPQKEKLAEIALQFAREAGLTRLKGETDYVLSNVLDGLIGDGSWRAGPAYESYLNKPGVDRVITTVDGLHMQR
modifications: Alexa-647 label
With B3 the Kd [5] was 0.1 nM.

B4: FM-SipAC (SipA residues 425–685 labeled with fluorescein maleimide) (domain or fragment)
chain: TGETTSFDEVDGVTSKSIIGKPVQATVHGVDDNKQQSQTAEIVNVKPLASQLAGVENVKTDTLQSDTTVITGNKAGTTDNDNSQTDKTGPFSGLKFKQNSFLSTVPSVTNMHSMHFDARETFLGVIRKALEPDTSTPFPVRRAFDGLRAEILPNDTIKSAALKAQCSDIDKHPELKAKMETLKEVITHHPQKEKLAEIALQFAREAGLTRLKGETDYVLSNVLDGLIGDGSWRAGPAYESYLNKPGVDRVITTVDGLHMQR
modifications: fluorescein maleimide (FM) label
For B4, the Kd [6] was ~0.9 nM.

B5: SipAC-Core (SipA residues 512–658), unlabeled (domain or fragment)
chain: TGPFSGLKFKQNSFLSTVPSVTNMHSMHFDARETFLGVIRKALEPDTSTPFPVRRAFDGLRAEILPNDTIKSAALKAQCSDIDKHPELKAKMETLKEVITHHPQKEKLAEIALQFAREAGLTRLKGETDYVLSNVLDGLIGDGSWRA
Binder B5 has a Kd [2] of 81 nM.
